Reference: patent publication US20150344570A1 (published 2015)

T1: FcγRIIb extracellular domain with C-terminal His tag (human, UniProt P31994 43-217)
T1 construct: extracellular domain; also called FcgRIIb; CD32B; not shown: His tag at the C terminus
T1 sequence (looked up): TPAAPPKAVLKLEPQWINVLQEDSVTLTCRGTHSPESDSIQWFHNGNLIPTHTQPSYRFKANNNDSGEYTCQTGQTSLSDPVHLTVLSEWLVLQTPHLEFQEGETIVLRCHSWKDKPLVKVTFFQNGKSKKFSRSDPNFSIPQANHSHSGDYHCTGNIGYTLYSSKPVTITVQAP

T2: FcγRIIb (human, UniProt P31994 43-217)
T2 construct: extracellular domain; also called FcgRIIb; 2b; not shown: His tag at the C terminus
T2 sequence (looked up): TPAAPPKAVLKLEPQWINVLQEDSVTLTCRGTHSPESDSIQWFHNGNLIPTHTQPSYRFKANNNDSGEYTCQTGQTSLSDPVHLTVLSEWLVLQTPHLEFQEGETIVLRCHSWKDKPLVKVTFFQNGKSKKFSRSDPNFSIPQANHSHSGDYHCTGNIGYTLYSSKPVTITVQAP

T3: FcγRIIa R (human, UniProt P12318 34-217)
T3 construct: extracellular domain; also called FcgRIIa R; FcγRIIa type R; not shown: His tag at the C terminus
T3 sequence (looked up): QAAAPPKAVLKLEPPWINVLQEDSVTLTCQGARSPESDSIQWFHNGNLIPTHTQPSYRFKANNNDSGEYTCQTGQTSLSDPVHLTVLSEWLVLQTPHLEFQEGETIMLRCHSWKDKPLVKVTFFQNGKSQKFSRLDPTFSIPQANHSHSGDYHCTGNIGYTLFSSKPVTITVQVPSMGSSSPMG


How the values were obtained:
[1] = target: T4, FcγRIa extracellular domain with C-terminal His tag (human, UniProt P12314 16-292); experiment: SPR; He/Con_1a divided by He/Con_2b (FcγRIa against FcγRIIb)
T4 construct: extracellular domain; also called FcgRI; CD64; not shown: His tag at the C terminus

[2] = target: T1, FcγRIIb extracellular domain with …; experiment: SPR (Biacore), antibody captured, FcγR analyte; relative to GpH7-A5/GpH7-B3/GpL16-k0 = 100
[3] = target: T4, FcγRIa extracellular domain with …; experiment: as above
FcγRIIb = target: T2, FcγRIIb; experiment: SPR (Biacore T100), antibody captured on antigen peptide chip, FcγR as analyte; binding relative to GpH7-A5/GpH7-B3/GpL16-k0 = 100
Description: (§1) The heterodimerized antibodies He Abs in which one of the H chains was introduced with an alteration were assayed for their binding activities to each activating FcγR and inhibitory FcγR according to the method described in Example 4. […] The activating FcγRs in FIGS. 26, 27, 28, and 29 are FcγRIa, FcγRIIa (R), FcγRIIa (H), and FcγRIIIa, respectively.
(§2) Analysis of interaction between objective antibody and the FcγR was carried out using Biacore T100 (GE Healthcare). HBS-EP+ (GE Healthcare) was used as the running buffer, and the measurement temperature was set to 25° C. Chips produced by immobilizing the antigen peptide by the amine coupling method to a Series S Sencor Chip CM5 (GE Healthcare), or alternatively, chips produced by allowing preliminarily biotinylated antigen peptides to interact with and immobilize onto a Series S Sensor Chip SA (certified) (GE Healthcare) were used. Antibodies of interest were captured onto an antigen peptide-immobilized chip, and allowed to interact to each FcγR diluted with running buffer. To regenerate and repeatedly use the chip, the antibodies captured on the chip were washed off by reacting 10 mM glycine-HCl, pH 1.5.

FcγRIIa R [4] = target: T3, FcγRIIa R; experiment: as above
Description: as §1, §2

FcγRIIa R [5] = target: T3, FcγRIIa R; experiment: SPR (Biacore T100); He/Con_2aR divided by He/Con_2b (FcγRIIa R over FcγRIIb)
Description: as §1, §2

T4 sequence (P12314 16-292): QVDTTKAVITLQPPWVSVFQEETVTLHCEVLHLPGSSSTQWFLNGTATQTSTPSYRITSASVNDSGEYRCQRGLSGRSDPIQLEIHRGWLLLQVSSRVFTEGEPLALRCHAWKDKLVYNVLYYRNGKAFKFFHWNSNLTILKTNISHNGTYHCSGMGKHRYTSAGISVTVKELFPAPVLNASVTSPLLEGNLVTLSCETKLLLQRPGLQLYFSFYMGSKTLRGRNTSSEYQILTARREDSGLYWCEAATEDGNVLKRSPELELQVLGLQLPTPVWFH

He_1a/2b (Ia/IIb) [1] [ratio]	He/Con_2b [2]	He/Con_1a [3]	He/Con_2b (IIb binding) (FcγRIIb)	He/Con_2aR (IIaR binding) (FcγRIIa R [4])	He_2aR/2b (IIaR/IIb) (FcγRIIa R [5]) [ratio]	Binder
1.5	51.4 % of HeCon Ab	77.3 % of HeCon Ab				GpH7-A5/GpH7-B3 variant P238_12R/GpL16-k0 (antibody, human IgG1, kappa, Heterodimerized anti-glypican-3 IgG1; mutation only in the GpH7-B3 H chain; also called He Ab) heavy 1: not shown heavy 2: not shown light: DIVMTQSPLSLPVTPGEPASISCQASESLVHSNRNTYLHWYLQKPGQSPQLLIYKVSNRFSGVPDRFSGSGSGTDFTLKISRVEAEDVGVYYCSQNTHVPPTFGQGTKVEIERTVAAPSVFIFPPSDEQLKSGTASVVCLLNNFYPREAKVQWKVDNALQSGNSQESVTEQDSKDSTYSLSSTLTLSKADYEKHKVYACEVTHQGLSSPVTKSFNRGEC
			56 % of control	75 % of control	1.34	GpH7-A5/GpH7-B3 variant P238_01G/GpL16-k0 (antibody, human IgG1, kappa, Heterodimerized anti-glypican-3 IgG1; mutation in one H chain only; also called He Ab) heavy 1: not shown heavy 2: not shown light: DIVMTQSPLSLPVTPGEPASISCQASESLVHSNRNTYLHWYLQKPGQSPQLLIYKVSNRFSGVPDRFSGSGSGTDFTLKISRVEAEDVGVYYCSQNTHVPPTFGQGTKVEIERTVAAPSVFIFPPSDEQLKSGTASVVCLLNNFYPREAKVQWKVDNALQSGNSQESVTEQDSKDSTYSLSSTLTLSKADYEKHKVYACEVTHQGLSSPVTKSFNRGEC
1.8	50.7 % of HeCon Ab	91.1 % of HeCon Ab				GpH7-A5/GpH7-B3 variant P238_14T/GpL16-k0 (antibody, human IgG1, kappa, Heterodimerized anti-glypican-3 IgG1; mutation only in the GpH7-B3 H chain; also called He Ab) heavy 1: not shown heavy 2: not shown light: DIVMTQSPLSLPVTPGEPASISCQASESLVHSNRNTYLHWYLQKPGQSPQLLIYKVSNRFSGVPDRFSGSGSGTDFTLKISRVEAEDVGVYYCSQNTHVPPTFGQGTKVEIERTVAAPSVFIFPPSDEQLKSGTASVVCLLNNFYPREAKVQWKVDNALQSGNSQESVTEQDSKDSTYSLSSTLTLSKADYEKHKVYACEVTHQGLSSPVTKSFNRGEC
			3.2 % of control	5.6 % of control	1.79	GpH7-A5/GpH7-B3 variant D265_04F/GpL16-k0 (antibody, human IgG1, kappa, Heterodimerized anti-glypican-3 IgG1; mutation in one H chain only; also called He Ab) heavy 1: not shown heavy 2: not shown light: DIVMTQSPLSLPVTPGEPASISCQASESLVHSNRNTYLHWYLQKPGQSPQLLIYKVSNRFSGVPDRFSGSGSGTDFTLKISRVEAEDVGVYYCSQNTHVPPTFGQGTKVEIERTVAAPSVFIFPPSDEQLKSGTASVVCLLNNFYPREAKVQWKVDNALQSGNSQESVTEQDSKDSTYSLSSTLTLSKADYEKHKVYACEVTHQGLSSPVTKSFNRGEC
			3.2 % of control	5.8 % of control	1.8	GpH7-A5/GpH7-B3 variant D265_03V/GpL16-k0 (antibody, human IgG1, kappa, Heterodimerized anti-glypican-3 IgG1; mutation in one H chain only; also called He Ab) heavy 1: not shown heavy 2: not shown light: DIVMTQSPLSLPVTPGEPASISCQASESLVHSNRNTYLHWYLQKPGQSPQLLIYKVSNRFSGVPDRFSGSGSGTDFTLKISRVEAEDVGVYYCSQNTHVPPTFGQGTKVEIERTVAAPSVFIFPPSDEQLKSGTASVVCLLNNFYPREAKVQWKVDNALQSGNSQESVTEQDSKDSTYSLSSTLTLSKADYEKHKVYACEVTHQGLSSPVTKSFNRGEC
2.75	24.7 % of HeCon Ab	68 % of HeCon Ab				GpH7-A5/GpH7-B3 variant S239_11K/GpL16-k0 (antibody, human IgG1, kappa, Heterodimerized anti-glypican-3 IgG1; mutation only in the GpH7-B3 H chain; also called He Ab) heavy 1: not shown heavy 2: not shown light: DIVMTQSPLSLPVTPGEPASISCQASESLVHSNRNTYLHWYLQKPGQSPQLLIYKVSNRFSGVPDRFSGSGSGTDFTLKISRVEAEDVGVYYCSQNTHVPPTFGQGTKVEIERTVAAPSVFIFPPSDEQLKSGTASVVCLLNNFYPREAKVQWKVDNALQSGNSQESVTEQDSKDSTYSLSSTLTLSKADYEKHKVYACEVTHQGLSSPVTKSFNRGEC
2.21	39.1 % of HeCon Ab	86.5 % of HeCon Ab				GpH7-A5/GpH7-B3 variant S239_12R/GpL16-k0 (antibody, human IgG1, kappa, Heterodimerized anti-glypican-3 IgG1; mutation only in the GpH7-B3 H chain; also called He Ab) heavy 1: not shown heavy 2: not shown light: DIVMTQSPLSLPVTPGEPASISCQASESLVHSNRNTYLHWYLQKPGQSPQLLIYKVSNRFSGVPDRFSGSGSGTDFTLKISRVEAEDVGVYYCSQNTHVPPTFGQGTKVEIERTVAAPSVFIFPPSDEQLKSGTASVVCLLNNFYPREAKVQWKVDNALQSGNSQESVTEQDSKDSTYSLSSTLTLSKADYEKHKVYACEVTHQGLSSPVTKSFNRGEC
1.78	49.4 % of HeCon Ab	88.1 % of HeCon Ab				GpH7-A5/GpH7-B3 variant S239_16H/GpL16-k0 (antibody, human IgG1, kappa, Heterodimerized anti-glypican-3 IgG1; mutation only in the GpH7-B3 H chain; also called He Ab) heavy 1: not shown heavy 2: not shown light: DIVMTQSPLSLPVTPGEPASISCQASESLVHSNRNTYLHWYLQKPGQSPQLLIYKVSNRFSGVPDRFSGSGSGTDFTLKISRVEAEDVGVYYCSQNTHVPPTFGQGTKVEIERTVAAPSVFIFPPSDEQLKSGTASVVCLLNNFYPREAKVQWKVDNALQSGNSQESVTEQDSKDSTYSLSSTLTLSKADYEKHKVYACEVTHQGLSSPVTKSFNRGEC
1.27	73.2 % of HeCon Ab	93.3 % of HeCon Ab				GpH7-A5/GpH7-B3 variant P238_18N/GpL16-k0 (antibody, human IgG1, kappa, Heterodimerized anti-glypican-3 IgG1; mutation only in the GpH7-B3 H chain; also called He Ab) heavy 1: not shown heavy 2: not shown light: DIVMTQSPLSLPVTPGEPASISCQASESLVHSNRNTYLHWYLQKPGQSPQLLIYKVSNRFSGVPDRFSGSGSGTDFTLKISRVEAEDVGVYYCSQNTHVPPTFGQGTKVEIERTVAAPSVFIFPPSDEQLKSGTASVVCLLNNFYPREAKVQWKVDNALQSGNSQESVTEQDSKDSTYSLSSTLTLSKADYEKHKVYACEVTHQGLSSPVTKSFNRGEC
			16.1 % of control	24.1 % of control	1.49	GpH7-A5/GpH7-B3 variant D265_01G/GpL16-k0 (antibody, human IgG1, kappa, Heterodimerized anti-glypican-3 IgG1; mutation in one H chain only; also called He Ab) heavy 1: not shown heavy 2: not shown light: DIVMTQSPLSLPVTPGEPASISCQASESLVHSNRNTYLHWYLQKPGQSPQLLIYKVSNRFSGVPDRFSGSGSGTDFTLKISRVEAEDVGVYYCSQNTHVPPTFGQGTKVEIERTVAAPSVFIFPPSDEQLKSGTASVVCLLNNFYPREAKVQWKVDNALQSGNSQESVTEQDSKDSTYSLSSTLTLSKADYEKHKVYACEVTHQGLSSPVTKSFNRGEC
1.37	70.4 % of HeCon Ab	96.6 % of HeCon Ab				GpH7-A5/GpH7-B3 variant P238_13S/GpL16-k0 (antibody, human IgG1, kappa, Heterodimerized anti-glypican-3 IgG1; mutation only in the GpH7-B3 H chain; also called He Ab) heavy 1: not shown heavy 2: not shown light: DIVMTQSPLSLPVTPGEPASISCQASESLVHSNRNTYLHWYLQKPGQSPQLLIYKVSNRFSGVPDRFSGSGSGTDFTLKISRVEAEDVGVYYCSQNTHVPPTFGQGTKVEIERTVAAPSVFIFPPSDEQLKSGTASVVCLLNNFYPREAKVQWKVDNALQSGNSQESVTEQDSKDSTYSLSSTLTLSKADYEKHKVYACEVTHQGLSSPVTKSFNRGEC
			19.9 % of control	33.9 % of control	1.71	GpH7-A5/GpH7-B3 variant D265_02A/GpL16-k0 (antibody, human IgG1, kappa, Heterodimerized anti-glypican-3 IgG1; mutation in one H chain only; also called He Ab) heavy 1: not shown heavy 2: not shown light: DIVMTQSPLSLPVTPGEPASISCQASESLVHSNRNTYLHWYLQKPGQSPQLLIYKVSNRFSGVPDRFSGSGSGTDFTLKISRVEAEDVGVYYCSQNTHVPPTFGQGTKVEIERTVAAPSVFIFPPSDEQLKSGTASVVCLLNNFYPREAKVQWKVDNALQSGNSQESVTEQDSKDSTYSLSSTLTLSKADYEKHKVYACEVTHQGLSSPVTKSFNRGEC
2.13	44.1 % of HeCon Ab	93.8 % of HeCon Ab				GpH7-A5/GpH7-B3 variant S239_04F/GpL16-k0 (antibody, human IgG1, kappa, Heterodimerized anti-glypican-3 IgG1; mutation only in the GpH7-B3 H chain; also called He Ab) heavy 1: not shown heavy 2: not shown light: DIVMTQSPLSLPVTPGEPASISCQASESLVHSNRNTYLHWYLQKPGQSPQLLIYKVSNRFSGVPDRFSGSGSGTDFTLKISRVEAEDVGVYYCSQNTHVPPTFGQGTKVEIERTVAAPSVFIFPPSDEQLKSGTASVVCLLNNFYPREAKVQWKVDNALQSGNSQESVTEQDSKDSTYSLSSTLTLSKADYEKHKVYACEVTHQGLSSPVTKSFNRGEC
2.57	34.9 % of HeCon Ab	89.8 % of HeCon Ab				GpH7-A5/GpH7-B3 variant S239_15Y/GpL16-k0 (antibody, human IgG1, kappa, Heterodimerized anti-glypican-3 IgG1; mutation only in the GpH7-B3 H chain; also called He Ab) heavy 1: not shown heavy 2: not shown light: DIVMTQSPLSLPVTPGEPASISCQASESLVHSNRNTYLHWYLQKPGQSPQLLIYKVSNRFSGVPDRFSGSGSGTDFTLKISRVEAEDVGVYYCSQNTHVPPTFGQGTKVEIERTVAAPSVFIFPPSDEQLKSGTASVVCLLNNFYPREAKVQWKVDNALQSGNSQESVTEQDSKDSTYSLSSTLTLSKADYEKHKVYACEVTHQGLSSPVTKSFNRGEC
